Experimental data from the DeepSol protein solubility set.

Test: soluble on expression in E. coli; label from the status in PepcDB or PDB records

Row | Sequence | soluble on expression in E. coli
1 | MVKETKLYDLLGVSPSANEQELKKGYRKAALKYHPDKPTGDTEKFKEISEAFEILNDPQKREIYDQYGLEAARSGGPSFGPGGPGGAGGAGGFPGGAGGFSGGHAFSNEDAFNIFSQFFGGSSPFGGADDSGFSFSSYPSGGGAGMGGMPGGMGGMHGGMGGMPGGFRSASSSPTYPEEETVQVNLPVSLEDLFVGKKKSFKIGRKGPHGASEKTQIDIQLKPGWKAGTKITYKNQGDYNPQTGRRKTLQFVIQEKSHPNFKRDGDDLIYTLPLSFKESLLGFSKTIQTIDGRTLPLSRVQPVQPSQTSTYPGQGMPTPKNPSQRGNLIVKYKVDYPISLNDAQKRAIDENF | not soluble
2 | MVKLAEFSRTATFAWSHDKIPLLVSGTVSGTVDANFSTDSSLELWSLLAADSEKPIASLQVDSKFNDLDWSHNNKIIAGALDNGSLELYSTNEANNAINSMARFSNHSSSVKTVKFNAKQDNVLASGGNNGEIFIWDMNKCTESPSNYTPLTPGQSMSSVDEVISLAWNQSLAHVFASAGSSNFASIWDLKAKKEVIHLSYTSPNSGIKQQLSVVEWHPKNSTRVATATGSDNDPSILIWDLRNANTPLQTLNQGHQKGILSLDWCHQDEHLLLSSGRDNTVLLWNPESAEQLSQFPARGNWCFKTKFAPEAPDLFACASFDNKIEVQTLQNLTNTLDEQETETKQQESETDFWNNVSREESKEKPSVFHLQAPTWYGEPSPAAHWAFGGKLVQITPDGKGVSITNPKISG | soluble
3 | MVKLENSRKPEKISNKNIPMSDFVVNLDHGDPTAYEEYWRKMGDRCTVTIRGCDLMSYFSDMTNLCWFLEPELEDAIKDLHGVVGNAATEDRYIVVGTGSTQLCQAAVHALSSLARSQPVSVVAAAPFYSTYVEETTYVRSGMYKWEGDAWGFDKKGPYIELVTSPNNPDGTIRETVVNRPDDDEAKVIHDFAYYWPHYTPITRRQDHDIMLFTFSKITGHAGSRIGWALVKDKEVAKKMVEYIIVNSIGVSKESQVRTAKILNVLKETCKSESESENFFKYGREMMKNRWEKLREVVKESDAFTLPKYPEAFCNYFGKSLESYPAFAWLGTKEETDLVSELRRHKVMSRAGERCGSDKKHVRVSMLSREDVFNVFLERLANMKLIKSIDL | soluble
4 | MVKSQPILRYILRGIPAIAVAVLLSACSTTTNTAKNMHSETHAVGNSDSSSLQASQDEFENMVRNLDVKSRIMDQYADWKGVRYRLGGSTKKGVDCSSFVQRTFREQFGLELPRSTYEQQEMGKAVSRNNLRTGDLVLFRAGSTGRHVGIYIGNNQFVHASTSSGVIISSMNEPYWKKRYNEARRVLSRS | not soluble
5 | MVKVTAACIIIGDEVLNGKVVDTNSTFFAKYCFDHGIQLKEIATIGDDETQIVDTVRRLVKNYDFIISTGGIGPTHDDITYECMAKSFNLPCELDEECKERMRHKSDPEARLDADALKAHYQMATMPKGTNVKNYYVCDDLWVPICSISHKMYILPGIPQLFARMLKAFTPTLKKIYNLDKDPREYVRYFVRTHLTESQISKELKLIQDESTKVSEAIKIGSYPHFGMGFNTVSILGEKKDDSYLKSIVNRVVNNLEGEVISSELENKFSNQES | not soluble
6 | MVLETTSSRDGEIKLTVDQMLGKLARWIRLMGYDVYYPSGTVPDDEIITKSRSEGRIIITRDYGMYQKYPMSIFEPYDDINDQLRDFIAHFSSRMKDRFMRCPVCNGRLVKLRSKIPEYLRNHRDVYICTGCHKMYWKGSHYRRIYRKIENLRPKGE | soluble
7 | MVLKRKGLLIILDGLGDRPIKELNGLTPLEYANTPNMDKLAEIGILGQQDPIKPGQPAGSDTAHLSIFGYDPYETYRGRGFFEALGVGLDLSKDDLAFRVNFATLENGIITDRRAGRISTEEAHELARAIQEEVDIGVDFIFKGATGHRAVLVLKGMSRGYKVGDNDPHEAGKPPLKFSYEDEDSKKVAEILEEFVKKAQEVLEKHPINERRRKEGKPIANYLLIRGAGTYPNIPMKFTEQWKVKAAGVIAVALVKGVARAVGFDVYTPEGATGEYNTNEMAKAKKAVELLKDYDFVFLHFKPTDAAGHDNKPKLKAELIERADRMIGYILDHVDLEEVVIAITGDHSTPCEVMNHSGDPVPLLIAGGGVRTDDTKRFGEREAMKGGLGRIRGHDIVPIMMDLMNRSEKFGA | soluble
8 | MVLTLDLADPAQPEHVFIVEDSRGATELKLYKSHYTIGKADSCDIRLHSIYASRQHATLVRFLTENGEVRYRLIDGDPETSRRSANGTYVNNRSITECDLKHYDQILFGALEHHHHHH | not soluble
9 | MVMNQKNLFTRSALAAAIALISSNVSAAGFQLNEYSAAALGRAFSGEGAVADNASVGSRNPAAMTLFDRPSFSGGVIYIDPSVDITGTSPSGKSTDASNIAPSAWVPNLHFIMPLDEQWAIGASATSNYGLATEFNDDYVAGMLGGQTDLKTANLNLSAAYRLNDNFSFGLGFDAVYADAKIVRHLGEAGGGLLPANTEAARLEGTKWGYGWNTGILYEIDKENRYSFTYRSEVNIDFDGDYSNQLPVIFGGLGGKTVPGSLTLNLPAVWEVSGYNKVAPQWAIHYSMAYTTWSSFKELKATASNGDVLFDKHEGFRDAYRIALGTTYYYDDNWTFRTGIAFDDSPIPAGNRSISIPDQDRFWLSAGTTYAFNKNASVDVGIAYMKGQNVSITEKTPAPSNTTYEFNSKGSAMLYGVNFNYTF | not soluble
10 | MVMRYSLKQLAVFDAVATTGSVSQAAELLSLTQSATSMSLSQLEKMLGRSLFERHGKRMALTHWGVWLRPKAKKLIHDAQQIELGFYDQHLISGEISLGASQTAAEHLVPNLISNIDNDFPEIRISLGVKNTSGIIEGVLDYKYELGIIEGRCDDSRIHQEVFCTDHLIIVAAAHHPFAKHEKVSLAQLEQAKWVLREHGAGTRTIFDSAIHGKIPDLDVWREYEYVPVLRTLVANGQYLSCLPYLDVVKYIERGELVALNVPELNMERTLSFIWRSSMDQNPISDCIRREGIRMIKNHNVIR | not soluble
11 | MVNFKDKSMPTAIEKALDFIGGMNTSASVPHSMDESTAKGILKYLHDLGVPVSPEVVVARGEQEGWNPEFTKKVAGWAEKVASGNRILIKNPEYFSTYMQEQLKELVLEHHHHHH | soluble
12 | MVNQQEEINLSVALVTRNRPDSLERCLKSLRDQKVQPFEVVVSDDSDDLYKSSTKEIAQKWGCRYIDGPKRGLYANRNYVALACYGTHIRTMDDDHEFPEQHIEVCLNAIQSDPSSIWIIGEYSPTSSIENAPHPCPGQLHPRGFSFYPKDTQNCWAIADGASIYPKKIFASGLRFVEYYKFGASYLEWGSRLYYLSYRIRHLDSTYIIHHFNPKARSFSDQEMDQSSRFFAMLCHSFLYQSTFKNKCLFSYEILKQFILDPKLTIKCIINSWSNFELFSRSFCALEHHHHHH | not soluble
13 | MVPRTEIVAIEYGTPIEELKARFIESGISKIIVYKENIDNIIGYIHSSEMFREQTDWTKSVRQLPIAPETMGAHKLMKLFMQQKKSLAVVVDEFGGTSGIVALEDLVEEIFGEIEDEHDTTSYIA | not soluble
14 | MVPSTFSRLKAARCLPVVLAALIFVGCGTHTPDQSTAYMQGTAQADSAFYLQQMQQSSDDTRINWQLLAIRALVKEGKTGQAVELFNQLPQELNDSQRREKTLLAVEIKLAQKDFAGAQNLLAKITPADLEQNQQARYWQAKIDASQGRPSIDLLRALIAQEPLLGAKEKQQNIDATWQALSSMTQEQANTLVINADENILQGWLDLQRVWFDNRNDPDMMKAGIADWQKRYPNNPGAKMLPTQLVNVKAFKPASTNKIALLLPLNGQAAVFGRTIQQGFEAAKNIGTQPVAAQVAAAPAADVAEQPQPQTADGVASPAQASVSDLTGDQPAAQPVPVSAPATSTAAVSAPANPSAELKIYDTSSQPLSQILSQVQQDGASIVVGPLLKNNVEELLKSNTPLNVLALNQPENIENRVNICYFALSPEDEARDAARHIRDQGKQAPLVLIPRSSLGDRVANAFAQEWQKLGGGTVLQQKFGSTSELRAGVNGGSGIALTGTPITPRATTDSGMTTNNPTLQTTPTDDQFTNNGGRVDAVYIVATPGEIAFIKPMIAMRNGSQSGATLYASSRSAQGTAGPDFRLEMEGLQYSEIPMLAGGNLPLMQQALSAVNNDYSLARMYAMGVDAWSLANHFSQMRQVQGFEINGNTGSLTANPDCVINRKLSWLQYQQGQVVPAS | soluble
15 | MVQEQMKLTGTLEGHTGWVTQIATYTRNDKTTVLSSSRDKTILVWDVDSVAPVDEGPIGRPVRSLTGHNHFVSDVVISSDGQFALSGSWDKTLRLWDLNQGVSTRQFISHTKDVLSVAFSADNRQIVSGSRDKSIKLWNTLAQCKYTITDDCHTDWVSTVRFSPSNRDPVIVSAGWDKVVKVWNLGNCRLKTNHIGHTGYVNTVTVSPDGSLCASGGKDGQAMLWDLNEGKHLYTLPGNDVINAMSFSPNRYWLCAAVGSSIKIWDLEDKKEIEELKPEIASSGSSRGSSPQCISLAWSQDGQTLFAGYTDNIIRVYQVSIRASN | not soluble
16 | MVRPRTIDRERLLDIAESIISEAGAVTISFGGLAEAAGLSKASVQSVFGTREAMMEALLERWLRKEQRAYQKKIGPQSSLRERVRRHVKITGKESSEANSRLAAVLTALVGSDATEGVMAKWYASRVGKFSAETQEERLLRIAFLAAEGAFFMRHVAGFPMSDRLWRELFHDLLDFVAEPVGGAARSAA | not soluble
17 | MVRVDVEERFNRIARNTVEIVTEEELKGLLASGARIKGYIGYEPSGVAHIGWLVWMYKVKDLVEAGVDFSVLEATWHAYINDKLGGDMDLIRAAARIVRRVMEAAGVPVERVRFVDAEELASDKDYWGLVIRVAKRASLARVRRALTIMGRRAEEAEVDASKLIYPLMQVSDIFYMDLDIALGGMDQRKAHMLARDVAEKLGRKKPVAIHTPIISSLQGPGRMEASQGEIDDVLAEVKMSKSKPETAVFVVDSDDDIRRKIRKAYCPAKQVQGNPVLEIARYILFARDGFTLRVDRPAKYGGPVEYTSYEELERDYTDGRLHPLDLKNAVAESLIEVVRPIRGAVLGDPAMKRALEAIEGKVTR | soluble
18 | MVSAPSIDTPSATTFDFDSSVFKKEKVTLSGHDEYIVRGGRNLFPLLPDAFKGIKQIGVIGWGSQAPAQAQNLKDSLTEAKSDVVVKIGLRKGSNSFAEARAAGFSEENGTLGDMWETISGSDLVLLLISDSAQADNYEKVFSHMKPNSILGLSHGFLLGHLQSLGQDFPKNISVIAVCPKGMGPSVRRLYVQGKEVNGAGINSSFAVHQDVDGRATDVALGWSIALGSPFTFATTLEQEYKSDIFGERGILLGAVHGIVECLFRRYTESGMSEDLAYKNTVECITGVISKTISTKGMLALYNSLSEEGKKDFQAAYSASYYPSMDILYECYEDVASGSEIRSVVLAGRRFYEKEGLPAFPMGKIDQTRMWKVGEKVRSVRPAGDLGPLYPFTAGVYVALMMAQIEILRKKGHSYSEIINESVIEAVDSLNPFMHARGVSFMVDNCSTTARLGSRKWAPRFDYILSQQALVAVDNGAPINQDLISNFLSDPVHEAIGVCAQLRPSVDISVTADADFVRPELRQA | soluble
19 | MVSQVRQNYHSDCEAAVNRMLNLELYASYTYSSMYAFFDRDDVALHNVAEFFKEHSHEEREHAEKFMKYQNKRGGRVVLQDIKKPERDEWGNTLEAMQAALQLEKTVNQALLDLHKLATDKVDPHLCDFLESEYLEEQVKDIKRIGDFITNLKRLGLPENGMGEYLFDKHSVKESS | soluble
20 | MVTNVEGDMNYCCKVDLKPWHFWNKKGYKSFDVEGNPVEVYWDFRSAKFTSSPEPSSDFYVALVSEEEVVLLVGDYKKKAFKRTKSRPALVEAALFYKKENVFGKKCFTTRAKFYDRKKEHEIIVESSTSGPKEPEMWISIDGIVLIQVKNLQWKFRGNQTVLVDKQPVQVFWDVYDWLFSMPGTGHGLFIFKPGTTEDSDMEGSGHGGGGGGESDTSTGSRYYSTKSSNPWPPEFCLFLHAYKLE | soluble
21 | MVTPFPEVSEWLCIGQIVGAHGLRGEVKVKPFSDFPERFTVPGCRWLRSPRQPQPYAVTLLRGRFLPRAEQFVVTFAEISDRTAAEALKGAEILVPASDRPPLAANEYHLMDLIGLAVYHQGERVGEVVGLVNAGNDLLEVQLLDPAPKAPQSVYIPFVPAIVPVVDLAARRIEIDPPLGLLPLEHHHHHH | not soluble
